Experimental data published in PMC4452869.

Legend:
[1] = molecular target: HIV-1 reverse transcriptase p51 (HIV-1) (UniProt P03366); assay: NMR (1H-13C HMQC of Ile delta-methyl-labelled protein); 150 µM [^13CH3-Ile]p51 in 25 mM Tris-HCl-d11 in D2O (pD 7.5), 800 mM KCl, 20 mM MgCl2, 0.02% NaN3 (high salt to stabilise the homodimer); monomer to dimer
[2] = molecular target: HIV-1 reverse transcriptase p66 (HIV-1); assay: SEC; HiLoad 26/60 superdex 200 column, p66 and p66∆PL run separately; 50 mM Tris–HCl, pH 8.0, 200 mM NaCl, 1 mM EDTA; 0.5 ml/min; 4 °C; absorbance at 280 nm; monomer to dimer
[3] = molecular target: HIV-1 reverse transcriptase p66 (HIV-1); assay: NMR (1H-13C HMQC of Ile delta-methyl-labelled protein, time-dependent); [^13CH3-Ile]p66 homodimerization; successive 5.5-hr spectra after dimerization conditions were introduced; 25 mM Tris-HCl-d11 in D2O, pD 7.51, 100 mM KCl, 0.02% NaN3; 35 °C; apparent time constants; monomer to dimer
[4] = molecular target: HIV-1 reverse transcriptase p66 (HIV-1); assay: NMR (1H-13C HMQC of Ile delta-methyl-labelled protein, time-dependent); 45 µM [^13CH3-Ile]p66∆PL with 90 µM unlabeled p66 (twofold excess); 25 mM Tris-HCl-d11, pD 7.5, 100 mM KCl, 0.02% NaN3; successive 5.5-hr spectra; 35 °C; apparent time constants

## HIV-1 reverse transcriptase p51 (from UniProt P03366 600-1039) (natural protein)
[1]
  percent dimer: 90%

## HIV-1 reverse transcriptase p66 (enzyme)
[2]
  dimer/monomer ratio (percent dimer): 75 % dimer
  stoichiometry N: 2
[3]
  apparent time constant of dimer formation (Ile382E resonance): 2.4 h

## p66∆PL, p66 deletion mutant lacking palm loop residues 219–230 (enzyme)
[4]
  apparent time constant of growth of the dimer resonance (Ile47C): 8.8 h
  apparent time constant of monomer decay (Ile47M resonance): 9.1 h
  apparent time constant of monomer decay (Ile393M resonance): 9.3 h
  mean monomer decay time constant: 9 h
  percent dimerized (limit reached): 80 to 90%
  percent of the Ile47' intensity in the dimer species, initial spectra: 30 to 40%
  percent of the Ile47' intensity in the dimer species, limiting value: 80%
